Experimental data from patent US20170306033A1 (Amgen, published 2017).

Key:
[1] = target: human CGRP receptor (human, UniProt Q16602 23-461; O60894 27-148); assay: cell-based or functional assay
[2] = target: T1, human PAC1 receptor (human, UniProt P41586 21-468); assay: cell-based or functional assay
T1 sequence: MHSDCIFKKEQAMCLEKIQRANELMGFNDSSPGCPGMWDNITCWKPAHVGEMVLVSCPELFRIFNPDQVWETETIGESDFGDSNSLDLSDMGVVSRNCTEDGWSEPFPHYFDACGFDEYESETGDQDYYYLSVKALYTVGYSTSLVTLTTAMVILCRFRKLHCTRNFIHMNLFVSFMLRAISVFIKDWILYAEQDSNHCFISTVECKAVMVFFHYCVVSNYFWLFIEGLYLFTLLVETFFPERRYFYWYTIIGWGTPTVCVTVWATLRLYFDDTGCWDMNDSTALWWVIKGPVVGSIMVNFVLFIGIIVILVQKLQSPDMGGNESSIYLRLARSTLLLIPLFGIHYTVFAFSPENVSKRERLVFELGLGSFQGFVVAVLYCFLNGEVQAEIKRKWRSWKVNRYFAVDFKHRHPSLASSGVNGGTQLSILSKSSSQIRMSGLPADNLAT

Chain of human CGRP receptor (Q16602 23-461 limits assumed, chain 1 of 2): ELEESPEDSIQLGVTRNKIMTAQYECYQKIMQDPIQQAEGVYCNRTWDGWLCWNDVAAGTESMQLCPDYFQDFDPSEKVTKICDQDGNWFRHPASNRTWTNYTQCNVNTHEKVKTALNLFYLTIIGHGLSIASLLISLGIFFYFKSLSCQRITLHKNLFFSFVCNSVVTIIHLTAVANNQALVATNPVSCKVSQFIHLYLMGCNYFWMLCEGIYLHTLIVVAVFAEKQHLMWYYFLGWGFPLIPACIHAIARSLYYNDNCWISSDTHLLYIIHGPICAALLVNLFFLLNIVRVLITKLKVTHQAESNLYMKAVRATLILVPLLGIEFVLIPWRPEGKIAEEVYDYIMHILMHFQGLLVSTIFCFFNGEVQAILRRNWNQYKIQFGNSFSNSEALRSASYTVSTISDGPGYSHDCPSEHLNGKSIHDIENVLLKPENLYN
Chain of human CGRP receptor (O60894 27-148 limits assumed, chain 2 of 2): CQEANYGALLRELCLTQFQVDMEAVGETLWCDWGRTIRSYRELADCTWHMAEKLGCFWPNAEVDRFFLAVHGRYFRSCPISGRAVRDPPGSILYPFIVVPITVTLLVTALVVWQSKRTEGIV

B1: iPS:327717 (bispecific antibody, human IgG1, kappa, lambda, N297G)
light 1: not shown
heavy 1: not shown
light 2: QSVLTQPPSVSAAPGQKVTISCSGSSSNIGNNYVSWYQQLPGTAPKLLIYDNNKRPSGIPDRFSGSKSGTSATLAITGLQTGDEADYYCGTWDSRLSAVVFGGGTKLTVLGQPKANPTVTLFPPSSEELQANKATLVCLISDFYPGAVTVAWKADGSPVKAGVETTKPSKQSNNKYAAKSYLSLTPEQWKSHRSYSCQVTHEGSTVEKTVAPTECS
heavy 2: QVQLVESGGGVVQPGRSLRLSCAASGFTFSSFGMHWVRQAPGKGLEWVAVISFDGSIKYSVDSVKGRFTISRDNSKNTLFLQMNSLRAEDTAVYYCARDRLNYYDSSGYYHYKYYGMAVWGQGTTVTVSSASTKGPSVFPLAPSSKSTSGGTAALGCLVKDYFPEPVTVSWNSGALTSGVHTFPAVLQSSGLYSLESVVTVPSSSLGTQTYICNVNHKPSNTKVDKKVEPKSCDKTHTCPPCPAPELLGGPSVFLFPPKPKDTLMISRTPEVTCVVVDVSHEDPEVKFNWYVDGVEVHNAKTKPCEEQYGSTYRCVSVLTVLHQDWLNGKEYKCKVSNKALPAPIEKTISKAKGQPREPQVYTLPPSRKEMTKNQVSLTCLVKGFYPSDIAVEWESNGQPENNYKTTPPVLKSDGSFFLYSKLTVDKSRWQQGNVFSCSVMHEALHNHYTQKSLSLSPGK
[1]
  % inhibition of human CGRPR: 92%
[2]
  % inhibition of human PAC1: 94%

B2: iPS:327729 (bispecific antibody, human IgG1, kappa, lambda, N297G)
light 1: DIQLTQSPSFLSASVGDRVTITCRASQSIGRSLHWYQQKPGKAPKLLIKYASQSLSGVPSRFSGSGSGTEFTLTISSLQPEDFATYYCHQSSRLPFTFGPGTKVDIKRTVAAPSVFIFPPSDEQLKSGTASVVCLLNNFYPREAKVQWKVDNALQSGNSQESVTEQDSKDSTYSLESTLTLSKADYEKHKVYACEVTHQGLSSPVTKSFNRGEC
heavy 1: not shown
light 2: QSVLTQPPSVSAAPGQKVTISCSGSSSNIGNNYVSWYQQLPGTAPKLLIYDNNKRPSGIPDRFSGSKSGTSATLAITGLQTGDEADYYCGTWDSRLSAVVFGGGTKLTVLGQPKANPTVTLFPPSSEELQANKATLVCLISDFYPGAVTVAWKADGSPVKAGVETTKPSKQSNNKYAAKSYLSLTPEQWKSHRSYSCQVTHEGSTVEKTVAPTECS
heavy 2: QVQLVESGGGVVQPGRSLRLSCAASGFTFSSFGMHWVRQAPGKGLEWVAVISFDGSIKYSVDSVKGRFTISRDNSKNTLFLQMNSLRAEDTAVYYCARDRLNYYDSSGYYHYKYYGMAVWGQGTTVTVSSASTKGPSVFPLAPSSKSTSGGTAALGCLVKDYFPEPVTVSWNSGALTSGVHTFPAVLQSSGLYSLESVVTVPSSSLGTQTYICNVNHKPSNTKVDKKVEPKSCDKTHTCPPCPAPELLGGPSVFLFPPKPKDTLMISRTPEVTCVVVDVSHEDPEVKFNWYVDGVEVHNAKTKPCEEQYGSTYRCVSVLTVLHQDWLNGKEYKCKVSNKALPAPIEKTISKAKGQPREPQVYTLPPSRKKMTKNQVSLTCLVKGFYPSDIAVEWESNGQPENNYKTTPPVLKSDGSFFLYSKLTVDKSRWQQGNVFSCSVMHEALHNHYTQKSLSLSPGK
[1]
  % inhibition of human CGRPR: 84%
[2]
  % inhibition of human PAC1: 85%

B3: iPS:327718 (bispecific antibody, human IgG1, kappa, lambda, N297G)
light 1: not shown
heavy 1: not shown
light 2: QSVLTQPPSVSAAPGQKVTISCSGSSSNIGNNYVSWYQQLPGTAPKLLIYDNNKRPSGIPDRFSGSKSGTSATLAITGLQTGDEADYYCGTWDSRLSAVVFGGGTKLTVLGQPKANPTVTLFPPSSEELQANKATLVCLISDFYPGAVTVAWKADGSPVKAGVETTKPSKQSNNKYAAKSYLSLTPEQWKSHRSYSCQVTHEGSTVEKTVAPTECS
heavy 2: QVQLVESGGGVVQPGRSLRLSCAASGFTFSSFGMHWVRQAPGKGLEWVAVISFDGSIKYSVDSVKGRFTISRDNSKNTLFLQMNSLRAEDTAVYYCARDRLNYYDSSGYYHYKYYGMAVWGQGTTVTVSSASTKGPSVFPLAPSSKSTSGGTAALGCLVKDYFPEPVTVSWNSGALTSGVHTFPAVLQSSGLYSLESVVTVPSSSLGTQTYICNVNHKPSNTKVDKKVEPKSCDKTHTCPPCPAPELLGGPSVFLFPPKPKDTLMISRTPEVTCVVVDVSHEDPEVKFNWYVDGVEVHNAKTKPCEEQYGSTYRCVSVLTVLHQDWLNGKEYKCKVSNKALPAPIEKTISKAKGQPREPQVYTLPPSRKEMTKNQVSLTCLVKGFYPSDIAVEWESNGQPENNYKTTPPVLKSDGSFFLYSKLTVDKSRWQQGNVFSCSVMHEALHNHYTQKSLSLSPGK
[1]
  % inhibition of human CGRPR: 78%
[2]
  % inhibition of human PAC1: 70%
